For 16 molecules, binding result and Kd results are on record in PMC11437124 (Nature Communications, 2024).

Numbering of substitutions follows the chain as printed. Read-outs that look alike come from different tables or passages of the source.

In assay [1] the target is T1, human TREM2 extracellular domain (ECD) (Homo sapiens, UniProt Q9NZC2).
Assay [2] concerns the target T2, human TREM2 on live cells (Homo sapiens, UniProt Q9NZC2).
Assay [3] deals with T2, human TREM2 on live cells. Briefly: flow cytometry on cells.
The target in assay [4] is T3, 18-mer TREM2 peptide (148-165) (Homo sapiens, UniProt Q9NZC2).
T3 chain: ESFEDAHVEHSISRSLLE
Briefly: crystal structure.

Assay [5] has as its target T1, human TREM2 extracellular domain (ECD). Briefly: SPR.
In assay [6] the target is T4, TREM2 peptide 149-161, wild type (Homo sapiens, UniProt Q9NZC2).
T4 chain: SFEDAHVEHSISR
Briefly: BLI.

Assay [7] concerns the target T5, peptide with the entire TREM2 stalk region (Homo sapiens, UniProt Q9NZC2, biotinylated at the amino-terminus).
T5 chain: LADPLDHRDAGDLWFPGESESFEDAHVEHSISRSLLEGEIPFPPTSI
Briefly: ELISA.

Assay [8] concerns the target T6, TREM2 peptide 149-168 (Homo sapiens, UniProt Q9NZC2, biotinylated at the amino-terminus).
T6 chain: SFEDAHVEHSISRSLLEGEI
Description: ELISA.

Assay [9] concerns the target these 4 clones (3.10C2, 3.27H7, 3.18E5 and 3.50G1), SPR screening. Description: SPR.

B1: 3.10A7 (antibody, V domains shown)
VH: AVQLVESGGGLVQPKESLKISCAASGITFSNAAMFWVRQAPGKGLEWVARIRTKPNNYATNYADSVKGRFTISRDDSKSMVYLQMDNLKTEDTAMYYCTAGTTVVPFDYWGQGVMVTVSS
VL: DIVMTQSPSSLAVSAGETVTIDCKSSQSLLYSGNQKTYLAWYQQKPGQSPKLLIYWASTRQSGVPDRFIGSGSGTDFTLTISSVQAEDLAIYYCQQYYDTPLTFGSGTKLEIK
On to B1, for which the binding result in assay [1] and in assay [2] was “binds” each time.

B2: 3.21B10 (antibody, V domains shown)
VH: AVQLIESGGGLVQPKGSLKISCAASGFTFSDAAMFWVRQAPGKGLEWIARIRTKPNNYATYYADSVRGRFTISRDDSKSMVYLQMDNLKTDDTAMYYCIEGVNYGGSPFVYWGQGTLVTVSS
VL: B1 VL with D22N, T37S, G72V, T100I, L110V
In the case of B2, the binding result in assay [1] and in assay [2] was “binds” each time.

B3: antibody 3.41B10 (antibody, V domains shown)
VH: AVQLVESGGGLVQPKESLKISCEASGFTFTNAAMNWVRQAPGKGLEWVARIRTKPNNYRTYYADSVRGRFTISRDDSKSMVHLQMDNLKTEDTAMYYCTGEGPQGGFVYWGQGTLVTVSS
VL: B1 VL with A12T, E17G, D22N, N34D, Q35R, T37N, A57S, T100S, E111D
Regarding B3, the binding result in [3] is “binds”.

B4: antibody 3.27H7 (antibody, V domains shown)
VH: EVQLVETGGSLVQPGGSLKLTCATSGFPFSNVWLHWIRRSPEKQLEWVAQIKARSDNYATYYAESVKGRFIVSRDDSKTTIYLQMNNLKEEDTAIYYCTGLDYWGQGVMVTVSS
VL: DVVLTQAPLSVSVTPGESASISCRSSRSLLTSKGITSLYWYLQKPGMSPHLLIYRMSNLASGIPDRFSGSGSETDFTLKISEVEPEDVGVYYCAQFLVYPYTFGAGTKLELK
With B4, the binding result in [3] is recorded as “binds”.

B5: huPara.09 Fab fragment (Fab, V domains shown)
VH: EVQLVESGGGLVQPGGSLKLSCATSGFPFSNVWLHWVRQASGKGPEWVAHIKAKSDNYATYYAESVKGRFTISRDDSKNTVYLQMNSLKTEDTAVYYCTDILEYWGQGTLVTVSS
VL: DVVMTQSPLSLPVTPGEPASISCRSSRSLLTSKGITSLYWYLQKPGQSPQLLIYRMSNLASGIPDRFSGSGSGTDFTLKISRVEAEDVGVYYCAQFLVYPYTFGPGTKVEIK
On to B5, for which the binding result in assay [4] is listed as “binds”.

B6: hu3.10C2 I107h insertion (antibody, V domains shown)
VH: B5 VH with L34M, P45L, V48I, N79T, V81I, D100G, E103D, L110T
VL: B5 VL
For B6, the binding result in assay [5] is recorded as “binds”.

B7: hu3.10C2 G106hD/D116hE (antibody, V domains shown)
VH: EVQLVESGGGLVQPGGSLKLSCATSGFPFSNVWMHWVRQASGKGLEWIAHIKAKSDNYATYYAESVKGRFTISRDDSKTTIYLQMNSLKTEDTAVYYCTDLEYWGQGTTVTVSS
VL: B5 VL
Consider B7, for which, in assay [5], the binding result is “binds”.

B8: hu3.10C2 G106hD/I107h insertion/D116hE (antibody, V domains shown)
VH: B5 VH with L34M, P45L, V48I, N79T, V81I, L110T
VL: B5 VL
Regarding B8, the binding result in assay [5] is listed as “binds”.

B9: hu3.10C2 I107h insertion/D116hE (antibody, V domains shown)
VH: B5 VH with L34M, P45L, V48I, N79T, V81I, D100G, L110T
VL: B5 VL
For the molecule B9, in [5], the binding result is “binds”.

B10: antibody 3.18E5 (antibody, V domains shown)
VH: EVQLVETGGSLVQPGKSLKLTCATSGFPFSNVWMHWVRQSPEKQLEWIAHIKAKSDNYATYYAESVKGRFTISRDDSKTTIYLQMNSLKEADTAIYYCTGLDYWGQGVMVTVSS
VL: DTVLTQAPLSVSVTPGESASISCRSNKSLLGIRDITSLYWYLQKPGKSPQLLIYRMSNLASGVPDRFSGSGSETDFTLKISEVETEDVGVYYCAQFLRYPYTFGPGTKLELK
For the molecule B10, in assay [3], the binding result is “binds”.

B11: Fab fragment of antibody Para.09 (Fab, V domains shown)
VH: EVQLVETGGSLVQPGKSLRLTCATSGFPFSNVWLHWVRQSPEKHPEWVAHIKAKSDNYATYYAESVKGRFTISRDDSKSSVFLQMNSLKEEDTAIYYCTDILEYWGQGTLVTVSS
VL: B10 VL with V11L, N26S, I32V
On to B11, for which the binding result in assay [6] is “binds”.

B12: antibody 3.50G1 (antibody, V domains shown)
VH: B10 VH with T80S, E90D, A91D
VL: B10 VL with Y41F, K112Q
On to B12, for which the binding result in assay [3] is “binds”.

B13: Fab fragment of antibody 3.10C2 (Fab, V domains shown)
VH: B10 VH with T80S, A91D
VL: B10 VL with V11L, N26S, I32V
Turning to B13, the binding result in assay [6] is listed as “binds”.

B14: antibody Para.09 (IgG, with the light chain of 3.10C2) (antibody, V domains shown)
VH: B11 VH
VL: B10 VL with V11L, N26S, I32V
As to B14, the binding result in assay [7] and in assay [8] was “binds” each time.

B15: antibody 3.22B9 (antibody, V domains shown)
VH: AVQVVESGGGLVQPKGSLKISCAVSGFTFSDAAMHWVRQAPGKGLEWVARIRTKPNSYATYYADSVKGRFIISRDDSKNMVYLQMDNLKIEDTAMYYCTAGTTTAPFDYWGQGVMVTVSS
VL: DIVMIQSPSSVAVSAGETVTINCKSSQSLLYSGDHKNYLAWFQQKPGQSPKLLIYWASTRLSDVPDRVIGSGSGTDFTLTISSVQAEDLATYYCQQYYDTPLTFGSGTKVEIK
With B15, the binding result in [3] was “binds”.

B16: human TREM2 extracellular domain (ECD) (domain or fragment)
chain: HNTTVFQGVAGQSLQVSCPYDSMKHWGRRKAWCRQLGEKGPCQRVVSTHNLWLLSFLRRWNGSTAITDDTLGGTLTITLRNLQPHDAGLYQCQSLHGSEADTLRKVLVEVLADPLDHRDAGDLWFPGESESFEDAHVEHSISRSLLEGEIPFPPTS
The molecule B16 gave a Kd in [9] of 0.14 to 0.67 nM.
